The values below come from article PMC3625974 (Structure (London, England : 1993), 2012).

What is called Kd is the constant that tells how readily two partners part at equilibrium.

In assay [1] the target is TorT (vpTorT) (Vibrio parahaemolyticus, UniProt Q87ID2). The experiment in a line: ITC. Format: binding.
The target in assay [2] is TorS (Escherichia coli) (UniProt P39453). As to conditions: cited from earlier work.
Assay [3] has as its target isolated vpTorSS sensor domain, GSGS-TorS(51-323) (V. parahaemolyticus). The experiment in a line: AUC.
The target in assay [4] is vpTorSS-TorSS dimer: two copies of vpTorSS (51-323) fused via a flexible linker [LN(SG)10A3] (V. parahaemolyticus). The experiment in a line: AUC.
Assay [5] deals with isolated vpTorSS sensor domain, GSGS-TorS(51-323) (V. parahaemolyticus). The experiment in a line: native gel or EMSA + SEC. In general terms: Mobility shift assays separate free from complexed probe on a gel.

TorT, sequence (P38683 19-342): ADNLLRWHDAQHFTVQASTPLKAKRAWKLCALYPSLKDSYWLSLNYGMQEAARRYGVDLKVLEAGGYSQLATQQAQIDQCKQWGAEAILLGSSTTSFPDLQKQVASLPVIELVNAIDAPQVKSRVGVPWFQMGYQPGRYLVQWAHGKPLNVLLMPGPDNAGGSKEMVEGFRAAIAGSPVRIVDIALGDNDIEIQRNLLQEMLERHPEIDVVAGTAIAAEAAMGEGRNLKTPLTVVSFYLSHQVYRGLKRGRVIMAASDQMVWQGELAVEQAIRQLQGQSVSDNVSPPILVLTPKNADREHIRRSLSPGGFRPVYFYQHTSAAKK

Compound `C[N+](C)(C)[O-]` [TMAO, trimethylamine-N-oxide] gave a Kd in assay [1] of 1360 nM. For the compound TorT (from UniProt P38683), the Kd in assay [2] was 10 nM.

Turning to “periplasmic binding protein TorT from V. parahaemolyticus, GSGS-TorT(29-329) (natural protein)”, the stoichiometry N (TorT per TorSS (2:2)) in assay [3] and in assay [5] was 1 in each case. Moreover, in assay [4], the Kd is 1790 nM.
